The target in this assay is Ubc9 (human, UniProt P63279 1-158). The assay can be described thus: pull-down.
Sequence of Ubc9 (P63279 whole entry): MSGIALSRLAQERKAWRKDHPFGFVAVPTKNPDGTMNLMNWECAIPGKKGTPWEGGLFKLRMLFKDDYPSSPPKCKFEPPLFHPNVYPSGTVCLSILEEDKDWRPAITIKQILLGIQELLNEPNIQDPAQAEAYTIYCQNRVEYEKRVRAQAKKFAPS

B1: IR1-M_ΔSIM domain of RanBP2 (domain or fragment, UniProt P49792 2637-2710, looked up)
chain: ELTPTAEQKALATKLKLPPTFFCYKNRPDYVSEEEEDDEDFETAVKKLNGKLYLDGSEKCRPLEENTADNEKEC
As to B1, the binding result is recorded as “binds”.

B2: IR1-M domain (internal repeat 1 and M) of RanBP2 (domain or fragment, UniProt P49792 2629-2710, looked up)
chain: DDDVLIVYELTPTAEQKALATKLKLPPTFFCYKNRPDYVSEEEEDDEDFETAVKKLNGKLYLDGSEKCRPLEENTADNEKEC
For the molecule B2, the binding result was “binds”.
